We go through two molecules from patent publication EP4019090A1.

Experiment [1] addresses Human IL-4R-Fc (human) (UniProt P24394). Put plainly: SPR.
Experiment [2] addresses Biotinylated IL-4R (human) (UniProt P24394). Put plainly: competitive ELISA; IL-4 coated, biotinylated IL-4R preincubated with scFv, streptavidin-HRP.
Experiment [3] shares this target. The experiment can be described thus: competitive ELISA; IL-4 coated, biotinylated IL-4R preincubated with scFv; reference dupilumab.
For experiment [4], the target named is Human IL-4R-Fc (human) (UniProt P24394). The experiment can be described thus: SPR (Biacore T200); human IL-4R-Fc captured via anti-human IgG-Fc, scFv as analyte; 1:1 model.
Chain of Human IL-4R-Fc (human) (P24394 26-232 limits assumed): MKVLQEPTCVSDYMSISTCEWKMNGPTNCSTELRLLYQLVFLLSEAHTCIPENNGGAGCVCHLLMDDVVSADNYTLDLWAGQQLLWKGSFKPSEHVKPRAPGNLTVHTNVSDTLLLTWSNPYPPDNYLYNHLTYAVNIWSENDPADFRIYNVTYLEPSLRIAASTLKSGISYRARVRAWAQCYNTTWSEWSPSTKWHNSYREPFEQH

Where a chain is given by its changes, count along the chain named. A value given as a limit tells only on which side of the number the result lay.

Chain of Biotinylated IL-4R (human) (P24394 26-232 limits assumed): as above

B1: PRO1517 (scFv, from another filing)
scFv: DIQMTQSPSSLSASVGDRVTITCQASEDIESYLAWYQQKPGKAPKLLIYRASTLAYGVPSRFSGSGSGTDFTLTISSLQPEDFATYYCLGSSYSTGSNIFGTGTKVTVLGGGGGSGGGGSGGGGSGGGGSEVQLVESGGGLVQPGGSLRLSCAASGFSSSSAHYMCWVRQAPGKGLEWIGCIYAGSRGSTYYASWAKGRFTISRDNSKNTVYLQMNSLRAEDTAVYYCARAAFVNRGVSWIWPYYFSLWGQGTLVTVSS
On to B1, for which the Kd in the experiment with Human IL-4R-Fc (human) [1] was below 500 pM. Besides, the IC50 in experiment [2] is 0.54 ng/mL. The rel. IC50 (IC50, dupilumab/IC50 test sample) in experiment [3] is 3.46.

B2: PRO1535 (scFv, from another filing)
scFv: B1 scFv with A43P, V132S, G180A, R204K, Y227F
In the experiment with Human IL-4R-Fc (human) [1], B2 returned a Kd below 500 pM. The same molecule came in with an IC50 in experiment [2] of 1.92 ng/mL. Besides, in the experiment with Human IL-4R-Fc (human) [4], the Kd came to 19.9 pM, the koff came to 5.42e-05 s⁻¹ and the kon turned out to be 2.72e+06 M⁻¹ s⁻¹. In experiment [3], this molecule gave a rel. IC50 (IC50, dupilumab/IC50 test sample) of 0.98.
